Patent US20210047402A1 (TENEOBIO, published 2021)
Positions count from the first letter of the chain named. One block for each binder: values may come before it.

Target: T1, human CD22 (human, UniProt P20273 20-687, limits assumed)
T1 construct: also called SIGLEC-2; human CD22 protein
T1 sequence (looked up): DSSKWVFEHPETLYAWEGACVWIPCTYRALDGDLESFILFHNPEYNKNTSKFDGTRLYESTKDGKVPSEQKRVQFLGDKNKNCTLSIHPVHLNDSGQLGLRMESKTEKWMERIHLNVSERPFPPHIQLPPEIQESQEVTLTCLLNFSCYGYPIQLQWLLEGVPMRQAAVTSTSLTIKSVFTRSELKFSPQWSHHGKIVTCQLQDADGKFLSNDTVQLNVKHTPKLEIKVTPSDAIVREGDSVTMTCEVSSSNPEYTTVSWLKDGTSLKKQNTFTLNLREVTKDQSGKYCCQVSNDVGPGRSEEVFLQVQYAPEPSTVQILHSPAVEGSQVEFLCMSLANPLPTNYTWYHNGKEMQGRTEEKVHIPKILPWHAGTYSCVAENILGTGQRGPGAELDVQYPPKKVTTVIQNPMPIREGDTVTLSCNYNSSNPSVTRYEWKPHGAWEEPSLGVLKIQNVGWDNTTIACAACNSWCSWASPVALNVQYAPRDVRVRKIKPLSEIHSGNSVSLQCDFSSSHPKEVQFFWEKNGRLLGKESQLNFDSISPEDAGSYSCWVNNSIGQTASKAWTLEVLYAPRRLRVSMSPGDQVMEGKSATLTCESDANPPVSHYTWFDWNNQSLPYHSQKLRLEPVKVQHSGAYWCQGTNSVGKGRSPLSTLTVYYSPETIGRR
Assay: ELISA protein and cell-binding assays

binding result: binds
B1: anti-CD22 heavy chain-only antibody Clone ID 335220 (antibody, V domains shown)
VH: QLQLQESGPGLVKPSETLSLTCTVSGGSISSSSYYWGWIRQPPGKGLEWIGSIYYSGSTYYNPSLKNRVTISVDTSKNQFSLKLSSVTAADTAVYYCTREDSSNWRSRGQGTLVTVSS
notes: Heavy chain-only antibody (UniAb), no light chain

binding result: binds
B2: anti-CD22 heavy chain-only antibody Clone ID 335179 (antibody, V domains shown)
VH: B1 VH with I39F, Q41H, E48D, Y54H, N67S, K77R, K83N, E100D
notes: as for B1

binding result: binds
B3: anti-CD22 heavy chain-only antibody Clone ID 335263 (antibody, V domains shown)
VH: B1 VH with S30N, S31D, S32N, Y34H, S52H, S58A, K77R, K83N, N104S
notes: as for B1

binding result: binds
B4: anti-CD22 heavy chain-only antibody Clone ID 335295 (antibody, V domains shown)
VH: B1 VH with S58A, K77R, K83N, N104S
notes: as for B1

binding result: binds
B5: anti-CD22 heavy chain-only antibody Clone ID 335333 (antibody, V domains shown)
VH: B1 VH with N67S, T98A, N104S
notes: as for B1

binding result: binds
B6: anti-CD22 heavy chain-only antibody Clone ID 335316 (antibody, V domains shown)
VH: B1 VH with S52H, S58A, N104S
notes: as for B1

binding result: binds
B7: anti-CD22 heavy chain-only antibody Clone ID 335260 (antibody, V domains shown)
VH: B1 VH with G27D, S32G, S33D, S52H, S58V, K77R, K83N, N104S
notes: as for B1

binding result: binds
B8: anti-CD22 heavy chain-only antibody Clone ID 335236 (antibody, V domains shown)
VH: B1 VH with N67S
notes: as for B1

binding result: binds
B9: anti-CD22 heavy chain-only antibody Clone ID 335301 (antibody, V domains shown)
VH: B1 VH with G27D, S32G, S33D, S52N, S58A, N104S
notes: as for B1

binding result: binds
B10: anti-CD22 heavy chain-only antibody Clone ID 335234 (antibody, V domains shown)
VH: B1 VH with G27D, S32G, S33D, S52N, S58A
notes: as for B1

binding result: binds
B11: anti-CD22 heavy chain-only antibody Clone ID 335323 (antibody, V domains shown)
VH: B1 VH with G27D, S32G, S33G, N104S
notes: as for B1

binding result: binds
B12: anti-CD22 heavy chain-only antibody Clone ID 335271 (antibody, V domains shown)
VH: B1 VH with G27D, S32G, S33D, Q41H, S52H, S58A, N104S
notes: as for B1

binding result: binds
B13: anti-CD22 heavy chain-only antibody Clone ID 335261 (antibody, V domains shown)
VH: B1 VH with G27D, S32G, S33D, S52H, S58A, K66E, N104S
notes: as for B1

binding result: binds
B14: anti-CD22 heavy chain-only antibody Clone ID 335266 (antibody, V domains shown)
VH: B1 VH with K13R, N67S, N104S
notes: as for B1

binding result: binds
B15: anti-CD22 heavy chain-only antibody Clone ID 335273 (antibody, V domains shown)
VH: B1 VH with N67S, N104S
notes: as for B1

binding result: binds
B16: anti-CD22 heavy chain-only antibody Clone ID 335285 (antibody, V domains shown)
VH: B1 VH with S58V, N104S
notes: as for B1

binding result: binds
B17: anti-CD22 heavy chain-only antibody Clone ID 335242 (antibody, V domains shown)
VH: B1 VH with S52H, S58A, K77R, K83N
notes: as for B1

binding result: binds
B18: anti-CD22 heavy chain-only antibody Clone ID 335307 (antibody, V domains shown)
VH: B1 VH with G27D, S32G, S33D, N67S, N104S
notes: as for B1

binding result: binds
B19: anti-CD22 heavy chain-only antibody Clone ID 335224 (antibody, V domains shown)
VH: B1 VH with G27D, S32G, S33D, S56T, N67S
notes: as for B1

binding result: binds
B20: anti-CD22 heavy chain-only antibody Clone ID 335293 (antibody, V domains shown)
VH: B1 VH with G27D, S32G, S33D, S52H, S58A, K77R, N104S
notes: as for B1

binding result: binds
B21: anti-CD22 heavy chain-only antibody Clone ID 335245 (antibody, V domains shown)
VH: B1 VH with G27D, S32G, S33D, S52H, S58A, N104S
notes: as for B1

binding result: binds
B22: anti-CD22 heavy chain-only antibody Clone ID 335233 (antibody, V domains shown)
VH: B1 VH with G27D, S32G, S33D, N67S
notes: as for B1

binding result: binds
B23: anti-CD22 heavy chain-only antibody Clone ID 335226 (antibody, V domains shown)
VH: B1 VH with G27D, N67S
notes: as for B1

binding result: binds
B24: anti-CD22 heavy chain-only antibody Clone ID 335244 (antibody, V domains shown)
VH: B1 VH with G27D, S32G, S33D, S52H, S58A, K77R, K83N, N104S
notes: as for B1

binding result: binds
B25: anti-CD22 heavy chain-only antibody Clone ID 335283 (antibody, V domains shown)
VH: B1 VH with S58A, N104S
notes: as for B1

binding result: binds
B26: anti-CD22 heavy chain-only antibody Clone ID 335232 (antibody, V domains shown)
VH: B1 VH with G27D, S32G, S33D, S52H, S58A, K77R, F80S, K83N
notes: as for B1

binding result: binds
B27: anti-CD22 heavy chain-only antibody Clone ID 335274 (antibody, V domains shown)
VH: B1 VH with N67S, K77R, K83N, N104S
notes: as for B1

binding result: binds
B28: anti-CD22 heavy chain-only antibody Clone ID 335297 (antibody, V domains shown)
VH: B1 VH with S52H, S58A, K77R, K83N, N104S
notes: as for B1

binding result: binds
B29: anti-CD22 heavy chain-only antibody Clone ID 335254 (antibody, V domains shown)
VH: B1 VH with G27D, S32G, S33D, S52H, S58V, N104S
notes: as for B1

binding result: binds
B30: anti-CD22 heavy chain-only antibody Clone ID 335230 (antibody, V domains shown)
VH: B1 VH with G8D, Y34H, S52H, S58A, K77R, K83N
notes: as for B1

binding result: binds
B31: anti-CD22 heavy chain-only antibody Clone ID 335311 (antibody, V domains shown)
VH: QLQLQESGPGLVKPSETLSLTCAVYGGSFSGYYWGWIRQPPGKGLEWIGHIYYSGATYYNPSLKNRVTISVDTSRNQFSLNLSSVTAADTAVYYCTREDSSSWRSRGQGTLVTVSS
notes: as for B1
